Results: article PMC2855648

Assays:
Test in all cases: initial velocity, spectrophotometric DTP/DTNB thiol assay
Format in all cases: biochemical, Escherichia coli
[1] = test system: NC[C@@H]1O[C@H](O[C@H]2[C@@H](O)[C@H](O[C@@H]3[C@@H](O)[C@H](N)C[C@H](N)[C@H]3O[C@H]3O[C@H](CN)[C@@H](O)[C@H](O)[C@H]3N)O[C@@H]2CO)[C@H](N)[C@@H](O)[C@@H]1O; details: fixed saturating AcCoA, optimum pH 5.6, room temperature
[2] = test system: NC[C@H]1O[C@H](O[C@H]2[C@H](O)[C@@H](O[C@H]3O[C@H](CO)[C@@H](O)[C@H](N)[C@H]3O)[C@H](N)C[C@@H]2N)[C@H](N)[C@@H](O)[C@@H]1O; details: fixed saturating AcCoA, optimum pH 5.6, room temperature
[3] = test system: CC(=O)SCCNC(=O)CCNC(=O)[C@H](O)C(C)(C)COP(=O)(O)OP(=O)(O)OC[C@H]1O[C@@H](n2cnc3c(N)ncnc32)[C@H](O)[C@@H]1OP(=O)(O)O; details: fixed saturating kanamycin B, optimum pH 5.6, room temperature

“AAC(6′)-Ib-wt (Escherichia coli; R102W/Y179D)” gave a Km [1] of 20 ± 1 µM, a kcat [1] of 3.08 ± 0.05 s⁻¹ and a kcat/Km [1] of 150000 M⁻¹ s⁻¹. It also gave a Km [2] of 0.27 ± 0.01 µM, a kcat [2] of 2.27 ± 0.05 s⁻¹ and a kcat/Km [2] of 8.38e+06 M⁻¹ s⁻¹. It also gave a Km [3] of 35 ± 2 µM, a kcat [3] of 2.32 ± 0.0667 s⁻¹ and a kcat/Km [3] of 66700 M⁻¹ s⁻¹.
